Experiments:
[1] = target: Human Rpn1, full-length, recombinant (human, UniProt Q13200 1-908); assay: ITC
[2] = target: Hsp70 nucleotide-binding domain (Hsp70NBD); assay: ITC

Human Rpn1, full-length, recombinant, sequence (Q13200 whole entry, the tested form may be a part): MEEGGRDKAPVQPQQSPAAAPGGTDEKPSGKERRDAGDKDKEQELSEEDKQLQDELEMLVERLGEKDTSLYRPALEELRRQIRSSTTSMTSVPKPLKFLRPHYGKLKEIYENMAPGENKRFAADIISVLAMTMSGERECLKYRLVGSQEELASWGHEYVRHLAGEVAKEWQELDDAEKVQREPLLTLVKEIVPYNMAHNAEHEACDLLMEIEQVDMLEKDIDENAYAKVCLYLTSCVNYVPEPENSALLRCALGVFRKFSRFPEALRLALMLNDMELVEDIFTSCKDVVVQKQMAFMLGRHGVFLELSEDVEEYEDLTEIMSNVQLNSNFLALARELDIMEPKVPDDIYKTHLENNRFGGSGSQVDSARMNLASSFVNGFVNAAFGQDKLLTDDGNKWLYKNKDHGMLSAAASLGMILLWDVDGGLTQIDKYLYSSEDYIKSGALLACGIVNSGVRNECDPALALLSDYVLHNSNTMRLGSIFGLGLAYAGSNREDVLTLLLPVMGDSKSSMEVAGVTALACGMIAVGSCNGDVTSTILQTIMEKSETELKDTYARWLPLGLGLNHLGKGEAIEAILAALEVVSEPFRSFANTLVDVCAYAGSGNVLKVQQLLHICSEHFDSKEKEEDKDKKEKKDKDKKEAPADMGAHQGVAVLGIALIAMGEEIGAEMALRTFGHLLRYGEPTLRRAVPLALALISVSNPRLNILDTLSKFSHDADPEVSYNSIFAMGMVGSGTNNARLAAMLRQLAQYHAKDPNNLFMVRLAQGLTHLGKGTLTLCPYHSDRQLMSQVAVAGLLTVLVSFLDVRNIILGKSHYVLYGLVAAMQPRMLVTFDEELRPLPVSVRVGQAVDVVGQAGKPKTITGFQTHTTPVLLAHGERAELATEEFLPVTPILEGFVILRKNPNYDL

- Kd [1]: ~0.5 µM
- Kd [2]: 0.05 µM
B1: Bag1 (Bcl-2 associated anthanogene 1), full-length (natural protein)
chain: MNRSQEVTRDEESTRSEEVTREEMAAAGLTVTVTHSNEKHDLHVTSQQGSSEPVVQDLAQVVEEVIGVPQSFQKLIFKGKSLKEMETPLSALGIQDGCRVMLIGKKNSPQEEVELKKLKHLEKSVEKIADQLEELNKELTGIQQGFLPKDLQAEALCKLDRRVKATIEQFMKILEEIDTLILPENFKDSRLKRKGLVKKVQAFLAECDTVEQNICQETERLQSTNFALAE
